We go through eleven molecules from patent US20110293610A1 (published 2011).

Experiment [1] deals with T1, membrane-bound B Lymphocyte Stimulator on U937 plasma membrane preparations (human, UniProt Q9Y275 1-285).
T1 construct: Natural protein in plasma membrane fractions of the human cell line U937 coated on ELISA plates; also called U937 plasma membranes; U937 membranes
As to the kind of experiment: phage ELISA.

The target in a further experiment is T2, TNF-alpha (human, UniProt P01375 77-233).
T2 construct: also called TNFα; TNF-α
As to the kind of experiment: phage ELISA.

A further experiment has as its target T3, TNF-beta (human, UniProt P01374 35-205).
T3 construct: also called TNFβ; Tumour Necrosis Factor-beta
T3 sequence (looked up): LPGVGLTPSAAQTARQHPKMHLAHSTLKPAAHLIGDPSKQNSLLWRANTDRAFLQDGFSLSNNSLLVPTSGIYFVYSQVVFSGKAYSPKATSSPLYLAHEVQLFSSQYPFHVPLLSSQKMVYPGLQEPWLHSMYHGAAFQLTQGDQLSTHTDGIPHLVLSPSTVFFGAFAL
The experiment is described as follows: phage ELISA.

The next experiment concerns the target T4, Fas ligand (human, UniProt P48023 134-281, limits assumed).
T4 sequence (looked up): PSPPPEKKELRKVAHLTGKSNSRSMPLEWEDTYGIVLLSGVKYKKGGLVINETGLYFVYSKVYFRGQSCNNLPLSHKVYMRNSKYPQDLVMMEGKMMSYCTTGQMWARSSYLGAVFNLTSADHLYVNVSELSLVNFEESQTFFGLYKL
The experiment is described as follows: phage ELISA.

The target of the next experiment is T5, TRAIL (human, UniProt P50591 114-281).
T5 construct: also called TNF-related apoptosis inducing ligand
The experiment is described as follows: phage ELISA.

Experiment [2] has as its target T6, B Lymphocyte Stimulator, soluble form (human) (human, UniProt Q9Y275 134-285, biotinylated with NHS-biotin where used as biotinylated B Lymphocyte Stimulator).
T6 construct: Coated on plastic, captured on streptavidin plates, amine-coupled to a CM5 chip or free in solution, depending on the assay; also called BLyS; immobilized B Lymphocyte Stimulator
As to the kind of experiment: phage competition ELISA.

B1: I021B05 (scFv)
scFv: QVQQSGADVKKPGGSLRLSCAASGFTFSSYSMNWVRQAPGKGLEWVSSISSSSSYIYYADSVKGRFTISRDNAKNSLYLQMNSLRAEDTAVYYCAREGGNYDILTGYYIGNGAFDIWGRGTMVTVSSGGGGSGGGGSGGGGSQSVLTQPASVSGSPGQSITISCTGTSSDVGGYNYVSWYQQHPGKAPKLMIYEGSKRPSGVSNRFSGSKSGNTASLTISGLQAEDEADYYCSSYTTRSTRVFGGGTKLTVLG
As to B1, the binding result in experiment [1] is recorded as “binds”; with TNF-alpha it was “no binding”; with TNF-beta it was “no binding”; with Fas ligand, “no binding”; in the experiment with TRAIL, “no binding”; in experiment [2] it was “binds”.

B2: I031G10 (scFv)
scFv: QVQLVQSGAEVKKPGSSVKVSCRVSGGSFTDDSINWLRQAPGQGLEWVGGTIPLANRANYAQKFRDRVTITADELTATVFLELTSLRSDDTALYYCARSSPPKWYDALTGDSSYHSAMDVWGRGTLVTVSSGGGGSGGGGSGGGGSAQSVVTQPPSVSAAPGQKVTISCSGSTSNIGRNYVSWYQQLPGTATKLLIYDNNKRPSGIPDRFSGSKSGTSATLGITGLQTGDEADYYCGTWDSSLRIYVFGTGTKVTVLG
Take B2: the binding result was “binds” in experiment [1]; “no binding” with TNF-alpha; “no binding” with TNF-beta; “no binding” in the experiment with Fas ligand; “no binding” with TRAIL; “binds” in experiment [2].

B3: I031G08 (scFv)
scFv: QVQLVQSGAEVKKPGSSVKVSCRASGGSFIDDSINWLRQAPGQGLEWVGGTIPLANRANYAQKFRDRATITADELTATVFLELTSLRSDDTALYYCARSSPPKWYDALTGHSSYHSAMDVWGRGTLVTVSSGGGGSGGGGSGGGGSAQSVLTQPPSASGTPGQRVTISCSGTNSNIGGNTVNWYQQLPGTAPRLLIYSNNQRPSGVPDRFSGSKSGTSASLAISGLQSEDEADYYCAARDDRLNAHVVFGGGTKVTVLG
B3: the binding result in experiment [1] is recorded as “binds”; with TNF-alpha it was “no binding”; in the experiment with TNF-beta, “no binding”; with Fas ligand it was “no binding”; with TRAIL, “no binding”; in experiment [2], “binds”.

B4: I028A06 (scFv)
scFv: QVQLVESGGGLIQPGGSLRLSCAASGFSFGSYAMSWIRQAPGKGLEWVSTSTGRGGSTYYADSVKGRFTISRDNAKNSLYLQMNSLRAEDAAVYYCARGGDYDILTGLYYYGMDVWGKGTMVTVSSGGGGSGGGGSGGGGSSYVLTQPPSVSGTPGQRVTISCSGGRSNIGSNTVKWYQQLPGTAPKLLIYGNDQRPSGVPDRFSGSKSGTSASLAITGVQAEDEADYYCQSYDSSLRGSRVFGTGTKVTVLG
In the case of B4, the binding result in experiment [1] was “binds”; with TNF-alpha, “no binding”; with TNF-beta, “no binding”; in the experiment with Fas ligand, “no binding”; in the experiment with TRAIL it was “no binding”; in experiment [2], “binds”.

B5: I031C07 (scFv)
scFv: EVQLVQSGAEVKKPGSSVKVSCRASGGSFIDGSINWLRQAPGQGLEWVGGTIPLANRANYAQKFRDRVTITADELTAIVFLELTSLRSDDTALYYCARSSPPRWYDALTGDSSYHSAMDVWGQGTMVTVSSGGGGSGGGGSGGGGSAQSALTQPPSASGSPGQSVTISCSGTSSDIGDSNSVSWYQQHPGKAPKLLIYEVTKRPSGVPDRFAGSRSDNTASLTVSGLQTEDEADYYCSSSAARNHLVFGGGTKVTVLG
In the case of B5, the binding result in experiment [1] was “binds”; in the experiment with TNF-alpha, “no binding”; with TNF-beta, “no binding”; in the experiment with Fas ligand it was “no binding”; with TRAIL it was “no binding”; in experiment [2], “binds”.

B6: I026E03 (scFv)
scFv: EVQLVQSGGEVKRPGASVKVSCKASGYTFSRYGISWVRQAPGQGLEWMGWISAYNGKTSFAEKFQGRVTLTTDTSTTTVDMELRNLRSDDTAVYYCARTDYDILTGYPMGYFDPWGKGTLVTVSSGGGGSGGGGSGGGGSALSSELTQDPAVSVALGQTVKITCQGDSLRSFYAAWYQQKPGQAPILVISGKNNRPSGIPDRFSGSSSGNTASLTITGAQAEDEADYYCNSRDTSGNHYVFGAGTKLTVLG
Regarding B6, the binding result in experiment [1] is “binds”; with TNF-alpha, “no binding”; with TNF-beta, “no binding”; in the experiment with Fas ligand it was “no binding”; in the experiment with TRAIL, “no binding”; in experiment [2] it was “binds”.

B7: I031C03 (scFv)
scFv: QMQLVQSGAEVRKPGSSVKVSCKASGGSFSSHVFSWVRQAPGQGLEWVGGITPKFATPNYAQKFQHRVTITADELTRTVFMDLSGLRSEDTAVYYCARGYDSSAFRAFDIWGQGTLVTVSSGGGGSGGGGSGGGGSAQSVLTQPPSVSAAPGQKVTISCSGSSSNIGNNYVSWYQQFPGTAPKLLIYDNNNRPSGVPDRFSGSKSGTSATLGITGLQTGDEADYYCGTWDRSLSVVVFGGGTKVTVLG
On to B7, for which the binding result in experiment [1] is reported as “binds”; with TNF-alpha, “no binding”; in the experiment with TNF-beta, “no binding”; in the experiment with Fas ligand it was “no binding”; in the experiment with TRAIL, “no binding”; in experiment [2], “binds”.

B8: I006D08 (scFv)
scFv: QVQLQQSGAEVKKPGSSVRVSCKASGGTFNNNAINWVRQAPGQGLEWMGGIIPMFGTAKYSQNFQGRVAITADESTSTASMELSSLRSEDTAVYYCARSRDLLLFPHYGMDVWGRGTMVTVSSGGGGSGGGGSGGGGSAFSSELTQDPAVSVALGQTVRVTCQGDSLRSYYASWYQQKPGQAPVLVIYGKNNRPSGIPDRFSGSSSGNTASLTITGAQAEDEADYYCNSRDSSGNHWVFGGGTELTVLG
For the molecule B8, the binding result was “binds” in experiment [1]; “no binding” in the experiment with TNF-alpha; “no binding” with TNF-beta; “no binding” with Fas ligand; “no binding” with TRAIL; “binds” in experiment [2].

B9: I012A06 (scFv)
scFv: QVQLQESGPGVVKPSQTLSLTCTVSGVSISSDSYYWSWIRQPAGKGPEWIGRIYPTGSTNYNPSLKSRVTISVDTSKNQFSLQLTSVTAADTAVYYCARGRWDYDLLTGEHLGYYFDYWGRGTLVTVSSGGGGSGGGGSGGGGSALSSELTQDPAVSVALGQTVRITCQGDTLRNYYASWYQQKPGQAPVLVIHSRNNRPSGIPDRFSGSSSGTTASLTITGSQAEDEADYYCNSRDSSGNVIFGGGTKLTVLG
For the molecule B9, the binding result in experiment [1] is listed as “binds”; with TNF-alpha it was “no binding”; with TNF-beta, “no binding”; in the experiment with Fas ligand, “no binding”; with TRAIL, “no binding”; in experiment [2], “binds”.

B10: I031F02 (scFv)
scFv: QVQLVQSGAEVRKPGSSVKVSCKASGGSFSSHVFSWVRQAPGQGLEWVGGITPKFATPNYAQKFQHRVTITADELTRTVFMDLSGLRSEDTAVYYCARGYDSSAFRAFDIWGQGTMVTVSSGGGGSGGGGSGGGGSAQSVLTQPPSVSGAPGQRVTISCTGSSSNIGAGYDVQWYQQLPGTAPKLLIHGNNNRPSGVPDRFSGSKSGTSASLAITGLQDEDEADYYCQSYDSSLSFSGYVFGTGTKVTVLG
In the case of B10, the binding result in experiment [1] was “binds”; in the experiment with TNF-alpha, “no binding”; in the experiment with TNF-beta, “no binding”; with Fas ligand, “no binding”; with TRAIL it was “no binding”; in experiment [2], “binds”.

B11: I061H01 (scFv)
scFv: QVQLVQSGGGLVKPGGSLRLSCAASGFTFSNAWMSWVRQAPGKGLQWVGRIKSKTDGGTTDYAAPVKGRFTISRDDSKNTLYLQMNSLKTEDTAVYYCTTFNPTYDILTGYYIGGYFQHWGQGTMVTVSSGGGGSGGGGSGGGGSQSVLTQPASVSGSPGQSITISCTGTSSDVGGYNYVSWYQQHPGKAPKLMIYEGSKRPSGVSNRFSGSKSGNTASLTISGLQAEDEADYYCSSYTTRSTRVFGGGTQLTVLG
notes: also called 1061H01
Consider B11, for which the binding result in experiment [1] is given as “binds”; in the experiment with TNF-alpha it was “no binding”; with TNF-beta, “no binding”; with Fas ligand it was “no binding”; with TRAIL it was “no binding”; in experiment [2] it was “binds”.
